Data as given in patent US20230241168A1 (ALPINE IMMUNE SCIENCES, published 2023).

T1: recombinant human APRIL (human, UniProt O75888 105-250, limits assumed)
T1 sequence (looked up): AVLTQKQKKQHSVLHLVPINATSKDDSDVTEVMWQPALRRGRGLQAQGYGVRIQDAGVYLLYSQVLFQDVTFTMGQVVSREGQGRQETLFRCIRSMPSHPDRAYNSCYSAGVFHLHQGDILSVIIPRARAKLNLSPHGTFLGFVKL

T2: human CD86 (human, UniProt P42081 24-329)
T2 sequence (looked up): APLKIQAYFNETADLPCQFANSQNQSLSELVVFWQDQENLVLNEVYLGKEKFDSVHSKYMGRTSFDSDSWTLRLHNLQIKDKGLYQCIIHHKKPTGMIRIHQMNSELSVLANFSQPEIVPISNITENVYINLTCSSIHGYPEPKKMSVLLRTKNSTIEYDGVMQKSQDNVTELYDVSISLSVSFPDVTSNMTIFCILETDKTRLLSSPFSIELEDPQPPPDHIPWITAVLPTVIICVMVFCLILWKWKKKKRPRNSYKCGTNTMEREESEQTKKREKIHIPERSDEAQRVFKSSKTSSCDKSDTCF

T3: human CD80 (human, UniProt P33681 35-288)
T3 sequence (looked up): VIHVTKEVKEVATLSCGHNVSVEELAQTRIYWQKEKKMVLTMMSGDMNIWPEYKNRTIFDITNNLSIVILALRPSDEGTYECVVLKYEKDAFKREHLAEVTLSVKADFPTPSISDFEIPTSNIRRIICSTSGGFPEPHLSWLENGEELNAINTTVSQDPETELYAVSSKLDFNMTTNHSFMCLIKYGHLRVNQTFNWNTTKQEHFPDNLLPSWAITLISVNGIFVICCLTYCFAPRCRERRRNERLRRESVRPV

B1: CTLA-4 92 GSG4S Fc (G4S)5 BCMA 357 (Fc fusion)
chain: KAMHVAQPAVVLASSRGIASFVCEYASPWKATEVRVTVLRQADSQVTEVCAATYMMGSELTFPDDSICTGTSSGNQVNLTIRGLRAMDTGLYICKVEQMYPPPYLLGIGNGTQIYVIDPEPCPDSDGSGGGGSEPKSSDKTHTCPPCPAPEAEGAPSVFLFPPKPKDTLMISRTPEVTCVVVDVSHEDPEVKFNWYVDGVEVHNAKTKPREEQYNSTYRVVSVLTVLHQDWLNGKEYKCKVSNKALPAPIEKTISKAKGQPREPQVYTLPPSRDELTKNQVSLTCLVKGFYPSDIAVEWESNGQPENNYKTTPPVLDSDGSFFLYSKLTVDKSRWQQGNVFSCSVMHEALHNHYTQKSLSLSPGGGGGSGGGGSGGGGSGGGGSGGGGSLQMAGQCSQNEYFDSLLYACIPCQLRCSSNTPPLTCQRYCNASVTNSVKGTNA
B2: CTLA-4 92 GSG4S Fc (G4S)2 BCMA 357 (Fc fusion)
chain: KAMHVAQPAVVLASSRGIASFVCEYASPWKATEVRVTVLRQADSQVTEVCAATYMMGSELTFPDDSICTGTSSGNQVNLTIRGLRAMDTGLYICKVEQMYPPPYLLGIGNGTQIYVIDPEPCPDSDGSGGGGSEPKSSDKTHTCPPCPAPEAEGAPSVFLFPPKPKDTLMISRTPEVTCVVVDVSHEDPEVKFNWYVDGVEVHNAKTKPREEQYNSTYRVVSVLTVLHQDWLNGKEYKCKVSNKALPAPIEKTISKAKGQPREPQVYTLPPSRDELTKNQVSLTCLVKGFYPSDIAVEWESNGQPENNYKTTPPVLDSDGSFFLYSKLTVDKSRWQQGNVFSCSVMHEALHNHYTQKSLSLSPGGGGGSGGGGSLQMAGQCSQNEYFDSLLYACIPCQLRCSSNTPPLTCQRYCNASVTNSVKGTNA
B3: CTLA-4 92 GSG4S Fc (G4S)3 BCMA 357 (Fc fusion)
chain: KAMHVAQPAVVLASSRGIASFVCEYASPWKATEVRVTVLRQADSQVTEVCAATYMMGSELTFPDDSICTGTSSGNQVNLTIRGLRAMDTGLYICKVEQMYPPPYLLGIGNGTQIYVIDPEPCPDSDGSGGGGSEPKSSDKTHTCPPCPAPEAEGAPSVFLFPPKPKDTLMISRTPEVTCVVVDVSHEDPEVKFNWYVDGVEVHNAKTKPREEQYNSTYRVVSVLTVLHQDWLNGKEYKCKVSNKALPAPIEKTISKAKGQPREPQVYTLPPSRDELTKNQVSLTCLVKGFYPSDIAVEWESNGQPENNYKTTPPVLDSDGSFFLYSKLTVDKSRWQQGNVFSCSVMHEALHNHYTQKSLSLSPGGGGGSGGGGSGGGGSLQMAGQCSQNEYFDSLLYACIPCQLRCSSNTPPLTCQRYCNASVTNSVKGTNA
B4: CTLA-4 186 GSG4S Fc (G4S)4 (TACI 542) (Fc fusion)
chain: KAMHVAQPAVVLASSRGIASFVCEYASPWKATEVRVTVLRQADSQVTEVCAATYMMGNELTFLDDSICTGTSSGNQVNLTIQGLRAMDTGLYICKVEQMYPPPYLLGIGNGTQIYVIDPEPCPDSDGSGGGGSEPKSSDKTHTCPPCPAPEAEGAPSVFLFPPKPKDTLMISRTPEVTCVVVDVSHEDPEVKFNWYVDGVEVHNAKTKPREEQYNSTYRVVSVLTVLHQDWLNGKEYKCKVSNKALPAPIEKTISKAKGQPREPQVYTLPPSRDELTKNQVSLTCLVKGFYPSDIAVEWESNGQPENNYKTTPPVLDSDGSFFLYSKLTVDKSRWQQGNVFSCSVMHEALHNHYTQKSLSLSPGGGGGSGGGGSGGGGSGGGGSSLSCRKEEGKFYDHLLQDCISCASICGQHPKQCAYFCENKLRS
B5: CTLA-4 186GSG4S-Fc-(G4S)4-BCMA 381 (Fc fusion)
chain: KAMHVAQPAVVLASSRGIASFVCEYASPWKATEVRVTVLRQADSQVTEVCAATYMMGNELTFLDDSICTGTSSGNQVNLTIQGLRAMDTGLYICKVEQMYPPPYLLGIGNGTQIYVIDPEPCPDSDGSGGGGSEPKSSDKTHTCPPCPAPEAEGAPSVFLFPPKPKDTLMISRTPEVTCVVVDVSHEDPEVKFNWYVDGVEVHNAKTKPREEQYNSTYRVVSVLTVLHQDWLNGKEYKCKVSNKALPAPIEKTISKAKGQPREPQVYTLPPSRDELTKNQVSLTCLVKGFYPSDIAVEWESNGQPENNYKTTPPVLDSDGSFFLYSKLTVDKSRWQQGNVFSCSVMHEALHNHYTQKSLSLSPGGGGGSGGGGSGGGGSGGGGSLQMAGQCSQNEYFDALLYACIPCQLRCSSNTPPLTCQQYCNASVTNSVKGTNA
B6: CTLA-4 186GSG4S-Fc-(G4S)4-BCMA 405 (Fc fusion)
chain: KAMHVAQPAVVLASSRGIASFVCEYASPWKATEVRVTVLRQADSQVTEVCAATYMMGNELTFLDDSICTGTSSGNQVNLTIQGLRAMDTGLYICKVEQMYPPPYLLGIGNGTQIYVIDPEPCPDSDGSGGGGSEPKSSDKTHTCPPCPAPEAEGAPSVFLFPPKPKDTLMISRTPEVTCVVVDVSHEDPEVKFNWYVDGVEVHNAKTKPREEQYNSTYRVVSVLTVLHQDWLNGKEYKCKVSNKALPAPIEKTISKAKGQPREPQVYTLPPSRDELTKNQVSLTCLVKGFYPSDIAVEWESNGQPENNYKTTPPVLDSDGSFFLYSKLTVDKSRWQQGNVFSCSVMHEALHNHYTQKSLSLSPGGGGGSGGGGSGGGGSGGGGSLQMAGQCSQNEYFDSLLKACIPCQLRCSSNTPPLTCQRYCNASVTNSVKGTNA
B7: CTLA-4 186GSG4S-Fc-(G4S)4-BCMA 411 (Fc fusion)
chain: KAMHVAQPAVVLASSRGIASFVCEYASPWKATEVRVTVLRQADSQVTEVCAATYMMGNELTFLDDSICTGTSSGNQVNLTIQGLRAMDTGLYICKVEQMYPPPYLLGIGNGTQIYVIDPEPCPDSDGSGGGGSEPKSSDKTHTCPPCPAPEAEGAPSVFLFPPKPKDTLMISRTPEVTCVVVDVSHEDPEVKFNWYVDGVEVHNAKTKPREEQYNSTYRVVSVLTVLHQDWLNGKEYKCKVSNKALPAPIEKTISKAKGQPREPQVYTLPPSRDELTKNQVSLTCLVKGFYPSDIAVEWESNGQPENNYKTTPPVLDSDGSFFLYSKLTVDKSRWQQGNVFSCSVMHEALHNHYTQKSLSLSPGGGGGSGGGGSGGGGSGGGGSLQMAGQCSQNEYFDSLLRACIPCQLRCSSNTPPLTCQRYCNASVTNSVKGTNA

Experiments:
Assay in all cases: cell-based or functional assay
[1] = target: recombinant human APRIL (human) (UniProt O75888); parameters: IC50 APRIL (Δ TACI 30-110-Fc) / IC50 BAFF (Δ TACI 30-110-Fc): unit not given beside the values
[2] = target: recombinant human BAFF (human) (UniProt Q9Y275); parameters: IC50 APRIL (Δ TACI 30-110-Fc) / IC50 BAFF (Δ TACI 30-110-Fc): unit not given beside the values
recombinant human BAFF = recombinant human BAFF (human, UniProt Q9Y275 134-285)
recombinant human APRIL = target: T1, recombinant human APRIL
human CD86 = target: T2, human CD86
human CD80 = target: T3, human CD80

Molecule | IC50 (nM) APRIL [1] | IC50 APRIL (Δ TACI 30-110-Fc) [1] | IC50 (nM) BAFF [2] | IC50 BAFF (Δ TACI 30-110-Fc) [2] | IC50 (nM) BAFF (recombinant human BAFF) | IC50 BAFF (Δ Parental vTD) (recombinant human BAFF) | IC50 (nM) APRIL (recombinant human APRIL) | IC50 APRIL (Δ Parental vTD) (recombinant human APRIL) | CD86 IC50 (human CD86) | CD80 IC50 (human CD80) | CD86 IC50 (Δ Parental CTLA-4) (human CD86) | CD80 IC50 (Δ Parental CTLA-4) (human CD80)
TACI 13-118-Fc (Fc fusion) | 9100 nM | 2.37 | 7700 nM | 1.33 |  |  |  |  |  |  |  | 
TACI 30-110-Fc (Fc fusion) | 3850 nM | 1 | 5770 nM | 1 |  |  |  |  |  |  |  | 
B1 |  |  |  |  | 0.765 nM | 0.8 ratio | 0.687 nM | 0.7 ratio |  |  |  | 
B2 |  |  |  |  | 6.27 nM | 1.2 ratio | 0.683 nM | 1 ratio | 16.1 nM | 22.7 nM |  | 
B3 |  |  |  |  | 0.548 nM | 0.6 ratio | 0.55 nM | 0.5 ratio |  |  |  | 
B4 |  |  |  |  | 0.153 nM |  | 2.49 nM |  | 9 nM | 82.6 nM | 1.1 ratio | 2.5 ratio
B5 |  |  |  |  | 0.282 nM |  | 1.27 nM |  | 11.9 nM | 26.1 nM | 1.5 ratio | 0.8 ratio
B6 |  |  |  |  | 0.16 nM |  | 18.4 nM |  | 10.8 nM | 70.1 nM | 1.3 ratio | 2.1 ratio
B7 |  |  |  |  | 0.133 nM |  | 2.37 nM |  | 9 nM | 32.7 nM | 1.1 ratio | 1 ratio
